Measurements taken from patent US20220396825A1, “METHOD FOR PREPARING […]” (KAO CORPORATION, priority 2019, published 2022).

Test system: fragments of sample DNA (genomic DNA of TA100 strain)
Experiment: Error reduction by single-strand-specific nuclease treatment of DNA fragments (DMSO-exposed library)
Format: biochemical, Salmonella typhimurium
Procedure: From DNA derived from the DMSO-exposed cells or the 3-MC-exposed cells, a plurality of samples each of which was to give 60 ng or 100 ng of DNA were prepared, and the samples were each fragmented into pieces having a length of approximately 350 bp on average by using a DNA Shearing System ME220. The fragments of each sample were divided into two groups. For the group without nuclease treatment (nontreatment group), the DNA fragments were suspended in Resuspension buffer attached to the TruSeq for End Repair in the subsequent step in accordance with the recommended protocol to afford 60 μL of eluate. For the group with nuclease treatment (treatment group), the DNA fragments were purified through steps of adsorbing on Sample Purification Beads attached to the TruSeq (hereinafter, also expressed as beads, simply), washing twice with 80% ethanol water, and drying in accordance with the recommended protocol. In the subsequent elution operation, the beads were suspended in distilled water (DW, produced by NIPPON GENE CO., LTD.) to afford 30 μL of DNA eluate containing DNA fragments.
S1 nuclease (Promega Corporation, catalog No.: M5761), Mung Bean Nuclease (MBN) (Takara Bio Inc., catalog No.: 2420A), or RecJf (New England Biolabs, catalog No.: M0264L) was used as the single-strand-specific nuclease. The activity values (numbers of units) of the enzymes were defined as follows. • S1 nuclease: an enzymatic activity such that 1 μg of acid-soluble substance is generated per minute at 37° C. in a mixed solution of 30 mM sodium acetate (pH 4.6, 25° C.), 50 mM NaCl, 1 mM ZnCl2, 5% glycerol, and 0.5 mg/mL denatured calf thymus DNA was defined as 1 U. • MBN: an enzymatic activity such that 1 μg of acid-soluble decomposition product is generated per minute at 37° C. and pH 5.0 with thermally denatured calf thymus DNA as a substrate was defined as 1 U. • RecJf: an amount of the enzyme necessary for generating 0.5 ng of deoxyribonucleotide soluble in trichloroacetic acid per minute at 37° C. in 50 μL of whole reaction solution (containing 1×NE Buffer 2 and 1.5 μg of sonicated [^3H]-labeled single-stranded E. coli DNA) was defined as 1 U.
To the DNA eluate obtained in I), 4 μL of 10× Reaction Buffer attached to the S1 nuclease was added. The S1 nuclease was appropriately diluted with 1× Reaction Buffer, 1, 3, 10, 30, 100, or 300 U thereof was added to the DNA eluate, and DW was added thereto to a total volume of 40 μL. For the sample to which 1000 U of the S1 nuclease was to be added, 4.6 μL of 10× Reaction Buffer was added to 30 μL of the DNA eluate obtained by beads purification, and 12 μL of the stock solution of the S1 nuclease was added thereto to a total volume of 46 μL. Each reaction solution with the S1 nuclease was incubated at 30° C. for 30 minutes. Assuming that the whole amount of DNA (60 ng) present at the beginning of library preparation existed in each reaction solution, the numbers of units of the S1 nuclease per 1 ng of DNA were 0.02, 0.05, 0.17, 0.50, 1.67, 5.00, and 16.7 U/ng. For inactivation of the S1 nuclease in each reaction solution, 3 μL of 0.5 M EDTA (pH 8.0) (produced by NIPPON GENE CO., LTD.) was added, and the resultant was incubated at 70° C. for 10 minutes. To purify DNA from the inactivated reaction solution, beads attached to the TruSeq in an amount equal to that of the reaction solution were added and a purification operation was carried out in accordance with the recommended protocol, and the resultant was suspended in Resuspension buffer attached to the TruSeq to afford 60 μL of eluate (S1 nuclease treatment group). […]
To the DNA eluate obtained in I), 5 μL of 10×NE Buffer 2 attached to the RecJf was added. The RecJf was appropriately diluted with 1×NE Buffer 2, and 3, 10, 30, or 100 units thereof was added to the DNA eluate to a total volume of 50 μL. Each reaction solution with the RecJf was stirred, and incubated at 37° C. for 60 minutes. […]

B1: S1 nuclease: single-strand-specific endonuclease (Promega Corporation, catalog No.: M5761) (protein, UniProt P24021 21-287, looked up)
Nuclease S1: WGNLGHETVAYIAQSFVASSTESFCQNILGDDSTSYLANVATWADTYKYTDAGEFSKPYHFIDAQDNPPQSCGVDYDRDCGSAGCSISAIQNYTNILLESPNGSEALNALKFVVHIIGDIHQPLHDENLEAGGNGIDVTYDGETTNLHHIWDTNMPEEAAGGYSLSVAKTYADLLTERIKTGTYSSKKDSWTDGIDIKDPVSTSMIWAADANTYVCSTVLDDGLAYINSTDLSGEYYDKSQPVFEELIAKAGYRLAAWLDLIASQPS
In the case of B1, the “Error reduction rate, GC to CG” value (S1 nuclease 0.02 U/ng) is reported as 30.4%, the “Error reduction rate, GC to TA” value (S1 nuclease 0.02 U/ng DNA in reaction solution) is reported as 52.8% and the “Error reduction rate, GC to CG” value (S1 nuclease 0.05 U/ng) is reported as 50.6%. For the same molecule, the “Error reduction rate, GC to TA” value (S1 nuclease 0.05 U/ng) was 35.3%, the “Error reduction rate, GC to CG” value (S1 nuclease 0.17 U/ng) was 84.9% and the “Error reduction rate, GC to TA” value (S1 nuclease 0.17 U/ng) was 83.1%. The “Error reduction rate, GC to CG” value (S1 nuclease 0.50 U/ng) was 87.5%, the “Error reduction rate, GC to TA” value (S1 nuclease 0.50 U/ng) was 69.9% and the “Error reduction rate, GC to CG” value (S1 nuclease 1.67 U/ng) was 86.0%. The “Error reduction rate, GC to TA” value (S1 nuclease 1.67 U/ng) was 81.7%, the “Error reduction rate, GC to CG” value (S1 nuclease 5.00 U/ng) was 98.3% and the “Error reduction rate, GC to TA” value (S1 nuclease 5.00 U/ng) was 84.5%. The “Error reduction rate, GC to CG” value (S1 nuclease 16.7 U/ng) was 98.1% and the “Error reduction rate, GC to TA” value (S1 nuclease 16.7 U/ng) was 79.6%.
